Results published in article PMC10831263 (The Journal of Biological Chemistry, 2023).
Substitutions are numbered along the chain they refer to. Names may count otherwise.

T1: GST-HERC2 (2540–2700th) (human, UniProt O95714 2540-2700)
T1 construct: also called HECT and RLD domains-containing E3 ubiquitin protein ligase 2; not shown: GST, N-terminal, kept
T1 sequence (looked up): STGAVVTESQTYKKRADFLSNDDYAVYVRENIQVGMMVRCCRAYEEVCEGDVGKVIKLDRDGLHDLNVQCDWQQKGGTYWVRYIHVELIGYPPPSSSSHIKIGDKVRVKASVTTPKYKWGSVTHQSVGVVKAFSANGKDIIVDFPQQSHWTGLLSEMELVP

B1: his-tagged NCOA4 (383–522nd) recombinant protein, WT (domain or fragment, human, UniProt Q13772-1 383-522, looked up)
chain: SMVTEDWLVQNHQDPCKVEEVCRANEPCTSFAECVCDENCEKEALYKWLLKKEGKDKNGMPVEPKPEPEKHKDSLNMWLCPRKEVIEQTKAPKAMTPSRIADSFQVIKNSPLSEWLIRPPYKEGSPKEVPGTEDRAGKQK
notes: Expressed from pQE80L; also called purified NCOA4; not shown: His6, N-terminal, kept
B2: his-tagged NCOA4 (383–522nd) 4C > A (domain or fragment, human, UniProt Q13772-1 383-522, looked up)
chain: B1 chain with C22A, C28A, C34A, C40A
notes: also called four cysteine residues substitution by alanine; not shown: His6, N-terminal, kept
B3: his-tagged NCOA4 (383–522nd) C418A (domain or fragment, human, UniProt Q13772-1 383-522, looked up)
chain: B1 chain with C36A
B4: his-tagged NCOA4 (383–522nd) C462A (domain or fragment, human, UniProt Q13772-1 383-522, looked up)
chain: B1 chain with C80A
B5: his-tagged NCOA4 (383–522nd) C398S (domain or fragment, human, UniProt Q13772-1 383-522, looked up)
chain: B1 chain with C16S
notes: C398A was insoluble, so C398S was made in its place
B6: his-tagged NCOA4 (383–522nd) C416A (domain or fragment, human, UniProt Q13772-1 383-522, looked up)
chain: B1 chain with C34A
B7: his-tagged NCOA4 (383–522nd) C410A (domain or fragment, human, UniProt Q13772-1 383-522, looked up)
chain: B1 chain with C28A
B8: his-tagged NCOA4 (383–522nd) C422A (domain or fragment, human, UniProt Q13772-1 383-522, looked up)
chain: B1 chain with C40A
B9: his-tagged NCOA4 (383–522nd) C404A (domain or fragment, human, UniProt Q13772-1 383-522, looked up)
chain: B1 chain with C22A

Assays:
GST-tagged FTH = molecular target: T2, GST-tagged FTH (human, UniProt P02794 1-183); test: pull-down; His-pulldown; His-tagged NCOA4 (383–522nd) WT or mutants and GST-tagged FTH, each expressed in E. coli and purified; read by immunoblotting; conditions: both partners purified
T2 construct: ferritin heavy chain 1 (FTH), human; also called GST-FTH; ferritin heavy chain 1; not shown: GST, N-terminal, kept

GST-HERC2 (2540–2700th) = molecular target: T1, GST-HERC2 (2540–2700th); test: pull-down; GST pull-down of HERC2 with Fe-S-bound NCOA4 (383–522nd): freshly purified or reconstituted; conditions: both partners purified
[1] = molecular target: the molecule itself; test: nonreducing gel electrophoresis; purified his-tagged NCOA4 (383–522nd) WT or mutants on a nonreducing gel, with or without β-ME (10 mM) or DTT (5 mM); the reductants converted the dimer into monomers

T2 sequence (P02794 whole entry): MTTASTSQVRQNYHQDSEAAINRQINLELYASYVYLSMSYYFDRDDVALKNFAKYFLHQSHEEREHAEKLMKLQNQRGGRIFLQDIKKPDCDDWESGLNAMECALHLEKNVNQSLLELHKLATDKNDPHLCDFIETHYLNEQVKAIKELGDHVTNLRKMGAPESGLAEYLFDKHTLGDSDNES

Binder	binding result (GST-tagged FTH)	binding result (GST-HERC2 (2540–2700th))	binding result [1]
B1	binds	binds	
B2	binds		
B3			binds
B4			binds
B5			binds
B6			binds
B7			binds
B8			binds
B9			binds
